According to article PMC6160062, “Designing antibodies against LRRK2-targeted tau epitopes” (PLoS ONE, 2018):

Target: T1, tau in human tauopathy brain tissue (neurofibrillary tangles) (Homo sapiens, UniProt P10636)
T1 construct: microtubule associated protein tau, human, endogenous in brain; also called NFT tau; tau pathology in AD, FTD and PSP cases; source: endogenous, formalin fixed paraffin embedded human brain tissue (hippocampal region; AD, FTD, PSP cases)
Assay: immunostaining of cells or tissue; paraffin sections of mouse brain (rTg4510 and nontransgenic; 4.5, 6, 8.5, 10 months) or of human hippocampal tissue; citrate antigen retrieval; MHT2 overnight; ABC/DAB detection

T1 sequence (P10636 whole entry): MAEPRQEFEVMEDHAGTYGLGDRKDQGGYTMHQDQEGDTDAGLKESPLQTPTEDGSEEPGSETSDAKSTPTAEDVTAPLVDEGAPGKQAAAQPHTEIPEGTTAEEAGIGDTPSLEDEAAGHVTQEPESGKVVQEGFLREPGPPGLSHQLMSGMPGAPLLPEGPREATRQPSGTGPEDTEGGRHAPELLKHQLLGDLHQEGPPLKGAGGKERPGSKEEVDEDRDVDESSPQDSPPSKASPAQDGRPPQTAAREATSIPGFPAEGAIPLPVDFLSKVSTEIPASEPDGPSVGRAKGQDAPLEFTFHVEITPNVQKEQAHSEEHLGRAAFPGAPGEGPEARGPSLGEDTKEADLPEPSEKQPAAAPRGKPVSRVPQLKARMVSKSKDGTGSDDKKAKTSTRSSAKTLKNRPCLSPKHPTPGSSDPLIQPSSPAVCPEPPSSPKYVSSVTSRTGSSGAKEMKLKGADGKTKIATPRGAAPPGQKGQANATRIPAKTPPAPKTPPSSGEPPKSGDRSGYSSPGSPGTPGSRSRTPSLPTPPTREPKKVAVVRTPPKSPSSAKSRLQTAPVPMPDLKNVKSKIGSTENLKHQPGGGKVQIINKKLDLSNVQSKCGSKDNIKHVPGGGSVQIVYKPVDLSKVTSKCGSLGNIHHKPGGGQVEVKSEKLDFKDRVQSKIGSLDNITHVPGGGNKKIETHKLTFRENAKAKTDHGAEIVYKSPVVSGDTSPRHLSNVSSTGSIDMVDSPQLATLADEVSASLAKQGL

B1: MHT2 monoclonal antibody (antibody, V domains shown)
VH: EVQLQQSGAELVRPGALVKLSCKASGFNIKDYYMHWVKQRPEQGLEWIGWIDPENGNTIYDPKFQGKASITADTSSNTAYLQLSSLTSEDTAVYYCSSYYDYDYWG
VL: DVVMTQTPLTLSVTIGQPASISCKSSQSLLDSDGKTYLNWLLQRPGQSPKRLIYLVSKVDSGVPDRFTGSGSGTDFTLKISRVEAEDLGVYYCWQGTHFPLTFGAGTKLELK
notes: Isotype IgG1; For the BLI experiment only, the antibody was biotinylated with EZ-Link NHS-PEG4 and held on streptavidin sensors; also called antibody MHT2
  binding result: binds
